Assays:
purified protein [1] = substrate: O=P(O)(O)O[C@H]1O[C@H](CO)[C@@H](O)[C@H](O)[C@H]1O; experiment: purified protein; format: biochemical, Caenorhabditis elegans; conditions: 1 mM UTP, 5 mM MgCl2, pH 7.5, 25°C
purified protein [2] = substrate: O=c1ccn([C@@H]2O[C@H](COP(=O)(O)OP(=O)(O)OP(=O)(O)O)[C@@H](O)[C@H]2O)c(=O)[nH]1; experiment: purified protein; format: biochemical, Caenorhabditis elegans; conditions: 1 mM Glc-1-P, 5 mM MgCl2, pH 7.5, 25°C

B1: UGP-1 (Caenorhabditis elegans) (protein)
chain: MSNDQLKSKLREFFDRQPDQSEKAHQDSKIFEVLYSQFLENQHCIDWNSWKFLEEKHQVTLKDLEPFDKSRFNILNKLAVIKLNGGLGTTMGCSKAKSLVEVREGYTFMDLAVLEHQKMCEAHNVDTPLYLMNSFYTDEDTKKYLAEKGYSNVKTFVQSKCPRLDAETKLPIEDENEDWGDDAWCPPGHGNIFQSLQNSGVLDQLLADGREIIFVSNIDNTGANTDLQIVQLMLDKNVDYIMECTPKTQVDVKGGTLIDIGGRMMHLEMPQVPAENLPDFCSTKVFKIFNTNNIYVNLKAVKKLLPDIKSEIIVNKKTIRSREVLQLEFSIGGCIKNFDNALCVHVERKRFRPVKNLGDLLSLRSTLCDLDHSTFKVHHNHELGAPPVISLDPSIYNSVEVVDLKFPHPLVMDNCSEFAVVGDVTFGKNVKLSGKVTVNGKTESPGVVPDGTVLKDQEYIAE
Km (purified protein [1]): 77.65 ± 7.73 µM | kcat (purified protein [1]): 23 ± 0.65 s⁻¹ | kcat/Km (purified protein [1]): 300000 ± 31000 M⁻¹ s⁻¹ | Km (purified protein [2]): 13.85 ± 2.95 µM | kcat (purified protein [2]): 20 ± 0.7 s⁻¹ | kcat/Km (purified protein [2]): 1.45e+06 ± 310000 M⁻¹ s⁻¹
